Reference: publication PMC5104691, “Crystal Structure of the Neuropilin-1 MAM Domain: Completing the Neuropilin-1 Ectodomain Picture” (Structure(London, England:1993), 2016)

Biological target: the molecule itself
Assay: ITC; dissociation by dilution: 900 μM MAM domain in the syringe titrated into buffer (20 mM Tris pH 8.0, 100 mM NaCl), one 0.4 μL and 19 injections of 2 μL, at 15°C and 20°C; dimer or oligomer to monomers

B1: MAM domain of human neuropilin-1 (residues 628-813), wild-type glycosylated (domain or fragment, UniProt O14786 628-813, looked up)
chain: ATEKPTVIDSTIQSEFPTYGFNCEFGWGSHKTFCHWEHDNHVQLKWSVLTSKTGPIQDHTGDGNFIYSQADENQKGKVARLVSPVVYSQNSAHCMTFWYHMSGSHVGTLRVKLRYQKPEEYDQLVWMAIGHQGDHWKEGRVLLHKSLKLYQVIFEGEIGKGNLGGIAVDDISINNHISQEDCAKPA
modifications: glycosylated at serine and threonine residues upstream of the predicted MAM domain (O-linked glycosylation sites)
notes: Neuropilin-1 (NRP1), human, amino acid residues 628-813 (linker region and MAM/c domain); also called NRP1 MAM domain; NRP1 MAM; source: FreeStyle HEK293-F cells, transfected, secreted
With B1 as the protein, how does the Kd read?
Its Kd is greater than 900 µM.
